The assay addresses HA-PP1β, expressed in HEK 293 cells (human) (UniProt P62140). Briefly: co-IP.

Sequence of HA-PP1β, expressed in HEK 293 cells (human) (P62140 whole entry): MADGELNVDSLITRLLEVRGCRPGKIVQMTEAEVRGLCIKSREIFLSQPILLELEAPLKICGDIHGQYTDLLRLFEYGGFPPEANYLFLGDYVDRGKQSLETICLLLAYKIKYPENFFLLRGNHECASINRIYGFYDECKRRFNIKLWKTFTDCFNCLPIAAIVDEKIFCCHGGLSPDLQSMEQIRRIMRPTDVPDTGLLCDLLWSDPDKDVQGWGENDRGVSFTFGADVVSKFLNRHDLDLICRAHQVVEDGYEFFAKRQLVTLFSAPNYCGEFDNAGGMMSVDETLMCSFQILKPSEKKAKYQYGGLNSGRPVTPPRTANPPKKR

On to “FLAG-KAP1 (wild type), expressed in HEK 293 cells (from UniProt Q13263 1-835) (natural protein)”, for which the extent of interaction relative to that with PP1α, after doxorubicin is 30%.
